For test [1], the target named is T1, C. elegans SYG-2 ectodomain (C. elegans, UniProt Q9U3P2 20-1084).
T1 sequence (looked up): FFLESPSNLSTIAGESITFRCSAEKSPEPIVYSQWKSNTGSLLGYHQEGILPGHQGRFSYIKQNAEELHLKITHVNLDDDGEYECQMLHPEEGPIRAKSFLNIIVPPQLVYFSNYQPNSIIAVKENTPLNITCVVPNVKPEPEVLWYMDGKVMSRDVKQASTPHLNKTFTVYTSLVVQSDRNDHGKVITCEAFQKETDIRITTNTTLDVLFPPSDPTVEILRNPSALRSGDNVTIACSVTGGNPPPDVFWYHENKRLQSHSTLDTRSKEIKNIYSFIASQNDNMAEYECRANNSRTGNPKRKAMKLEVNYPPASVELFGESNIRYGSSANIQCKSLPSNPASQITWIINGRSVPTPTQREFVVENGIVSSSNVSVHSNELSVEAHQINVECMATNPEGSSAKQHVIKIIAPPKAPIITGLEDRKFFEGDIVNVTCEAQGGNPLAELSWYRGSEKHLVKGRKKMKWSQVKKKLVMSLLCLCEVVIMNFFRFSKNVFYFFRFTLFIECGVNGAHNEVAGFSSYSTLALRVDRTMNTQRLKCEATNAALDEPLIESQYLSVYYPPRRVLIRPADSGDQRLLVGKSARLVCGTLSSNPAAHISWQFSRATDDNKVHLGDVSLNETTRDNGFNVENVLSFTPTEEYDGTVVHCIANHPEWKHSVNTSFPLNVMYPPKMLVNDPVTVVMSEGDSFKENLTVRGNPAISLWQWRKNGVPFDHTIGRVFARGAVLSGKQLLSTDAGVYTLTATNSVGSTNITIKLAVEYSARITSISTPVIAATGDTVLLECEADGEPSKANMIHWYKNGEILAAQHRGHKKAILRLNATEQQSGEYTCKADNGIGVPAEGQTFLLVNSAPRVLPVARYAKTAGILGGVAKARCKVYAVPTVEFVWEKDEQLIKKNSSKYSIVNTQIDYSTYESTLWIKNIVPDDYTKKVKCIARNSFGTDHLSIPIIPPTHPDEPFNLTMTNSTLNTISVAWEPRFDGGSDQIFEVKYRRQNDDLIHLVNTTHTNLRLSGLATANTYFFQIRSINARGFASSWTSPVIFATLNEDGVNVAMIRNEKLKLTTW
The test can be described thus: ITC + SPR.

The target in test [2] is wild type SYG-2 (SPR series with mutants, construct not stated) (C. elegans). Kind of test: SPR. A general note: In SPR one partner is held on a chip, and binding of the other changes the refractive index at the surface.

B1: C. elegans SYG-1 ectodomain (domain or fragment, UniProt B1Q236 19-551, looked up)
chain: QQLQQRIVEAPKDTLAAVGETAILTCRVEHQQGPVQWMKDDFGLGTDRDKPLPGNKRYRMVGSAANGEYNLEISNVTLFDDDDFACQISESDHAKAVVSSKAKLTVLVRPTPPKIVKSHHSLKAIAGDPITQSCLSRKGKPPPTIGWAIASDEHGKHIVSWLGESRSKFGGIHAKPEISQETVIAHVNETTQVEEGGNNSREDSSIYSIMSNLSFIPRPEDDHKYLICISQHMTFPNKIEVDSVKLSLRYAPQINLTVASKLPLRENGSALLACNVNAKPLDNVKISWYKGNQKLRETGDTLTFETLKMEDHNRDIFCEATNEIGTTRGSIKLNVAFGARIMSTSQDKEVNEGDNAFFHCATLANPAPAIFWTRGDSDEIIGHGENLTLENVRTWQQGNYNCTATVEGFRKQILSHYLHIRGPPTVSMKDEVSASLDEATEIICEISGRPKTNNVRWTVNGKEINFNNGRITVHQYPKPYGKESILKIKDLKEEDFGVYNCSANNGLGFDNRGTLLKKRNILDWIVITAKFDR
Broadly, the Kd is the equilibrium constant for the complex coming apart. Turning to B1, the Kd in test [1] is approximately 600 nM.

B2: SYG-1 Q54 mutant (domain or fragment)
chain: QQLQQRIVEAPKDTLAAVGETAILTCRVEHQQGPVAWMKDDFGLGTDRDKPLPGNKRYRMVGSAANGEYNLEISNVTLFDDDDFACQISESDHAKAVVSSKAKLTVLVRPTPPKIVKSHHSLKAIAGDPITQSCLSRKGKPPPTIGWAIASDEHGKHIVSWLGESRSKFGGIHAKPEISQETVIAHVNETTQVEEGGNNSREDSSIYSIMSNLSFIPRPEDDHKYLICISQHMTFPNKIEVDSVKLSLRYAPQINLTVASKLPLRENGSALLACNVNAKPLDNVKISWYKGNQKLRETGDTLTFETLKMEDHNRDIFCEATNEIGTTRGSIKLNVAFGARIMSTSQDKEVNEGDNAFFHCATLANPAPAIFWTRGDSDEIIGHGENLTLENVRTWQQGNYNCTATVEGFRKQILSHYLHIRGPPTVSMKDEVSASLDEATEIICEISGRPKTNNVRWTVNGKEINFNNGRITVHQYPKPYGKESILKIKDLKEEDFGVYNCSANNGLGFDNRGTLLKKRNILDWIVITAKFDR
B2: the “fold weaker affinity than wild-type SYG-1” value in test [2] amounted to 7 fold.

The record behind these values is article PMC3962013 (Cell, 2014).
